Experimental data as given in publication PMC4172982.
Each block holds one substance with its values, some of them ahead of it.

Experiments:
[1] = target: 26S proteasome from BALB/c mouse (mouse (endogenous in BALB/c brain)) (UniProt O35226)
[2] = target: G-actin (UniProt P60709); conditions: cited from earlier work
[3] = target: F-actin (UniProt P60709); conditions: cited from earlier work
[4] = target: CaM (UniProt P0DP23); experiment: SPR; conditions: cited from earlier work

Sequence of UniProt O35226 (O35226 whole entry, looked up): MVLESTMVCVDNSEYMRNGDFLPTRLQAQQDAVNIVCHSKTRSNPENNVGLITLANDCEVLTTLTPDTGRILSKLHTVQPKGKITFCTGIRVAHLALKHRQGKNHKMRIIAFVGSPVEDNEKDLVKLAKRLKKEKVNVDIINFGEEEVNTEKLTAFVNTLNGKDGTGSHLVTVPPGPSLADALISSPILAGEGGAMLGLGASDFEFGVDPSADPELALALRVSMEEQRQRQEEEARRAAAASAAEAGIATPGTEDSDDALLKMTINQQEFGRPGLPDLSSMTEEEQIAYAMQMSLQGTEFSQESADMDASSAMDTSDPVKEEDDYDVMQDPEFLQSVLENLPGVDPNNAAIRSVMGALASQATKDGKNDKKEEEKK

theoretical KD estimated from the inhibition curve of 26S-mediated MBP hydrolysis, assuming that bound 26S proteasome cannot degrade MBP (blocks m1 with m2) [1]: 1000 nM
Substance: Histone H1.3 human, recombinant (from UniProt P16402 1-221) (natural protein)

Substance: MBP (from UniProt P02686)
Kd [2]: 66.6 nM
Kd [3]: 65.3 nM

Substance: MBP (from UniProt P04370)
Kd [4]: 200 nM

Substance: MBP (from UniProt P81558)
Kd [4]: 148 nM
